{"source": "paper PMC9114808", "biological_target": "14-3-3 protein gamma (UniProt P61982)", "assay": "peptide bead pull-down, label-free MS", "details": "reference: unphosphorylated peptide; sites T426", "data": [{"substance": "Septin 7 (Sept7) C-terminal tail peptide C-terminal tail, 416-438 (from UniProt Q16181) pT426 peptide", "values": [{"measurement": "binding against the reference", "value": "stronger"}]}]}
